≈ marks a conversion by molar mass, not a printed value. Square brackets hold non-standard residues; d marks the D form. Ends that are not written are not given here. Peptide text beside a SMILES is read from it.

Assay [1] deals with E. coli Rosetta DE3 pLysS. The experiment in a line: MIC, liquid broth microdilution. In kind it is cell-based, Escherichia coli. The note with it: 25% MHBII medium, 7.5 × 10^6 CFU/mL, 37 °C, 20 ± 2 h, turbidity 600 nm, at least twice in triplicate. The protocol: (§1) The minimal inhibitory concentrations (MIC) were determined at least twice in triplicate using a liquid broth microdilution assay in sterile 96-well plates and a total volume of 100 μL per well. Aqueous peptide solutions were serially 2-fold diluted in 25% MHBII or 33% TSB medium in a volume of 50 µL. An overnight culture was diluted in 25% MHBII or 33% TSB medium to 1.5 × 10^7 CFU/mL, and an aliquot of 50 μL was added to each well. The final cell count in each well was 7.5 × 10^6 CFU/mL. The plates were incubated at 37 °C for 20 ± 2 h. The turbidity of each well was measured at a wavelength of 600 nm. The MIC was defined as the lowest peptide concentration where the turbidity was identical to medium only.

A further assay concerns E. coli BW25113. In kind it is cell-based, Escherichia coli. The note with it: BW25113, 2 h. The protocol:
as §1, with “The plates were incubated at 37 °C for 20 ± 2 h.” left out

The subject of assay [2] is 70S ribosome, ribosomal binding site of Api805. Description: Fluorescence polarization competition with cf-Api805. To be noted: Figure S2, twice in triplicate. Further details: species or system Escherichia coli. As for the experimental part:
Ki was determined for ribosome extracts using cf-labeled and unlabeled peptides in ribosome preparation buffer. Black 384-well plates were prepared as described above. Unlabeled peptides or antibiotics (20 μL, 656 μmol/L) were added and 2-fold serially diluted in 23 wells in ribosome preparation buffer. […] The fluorescence polarization was measured on a […] microplate reader in the top read position (λexc = 485 nm, λem = 535 nm) in triplicate on at least two different days. […] Inhibition constants, Ki, were calculated as described by Mathias and Jung. page 9: 140 140 120 120 100 100 80 80 60 60 40 40 […]. […]. […] 0 0 -20 -20 10 -2 1 10 2 10 4 10 6 10 -2 1 10 2 10 4 10 6 Pept ide Concent r at ion [ nM] Pept ide Concent r at ion [ nM] 140 140 120 120 100 100 80 80 60 60 40 40 20 Chlor […] ol vs. […] -20 -20 10 -2 1 10 2 10 4 10 6 10 -2 1 10 2 10 4 10 6 Ant ibiot ic Concent r at ion [ nM] Antibiotic Concentration [nM] 140 120 100 80 60 40 […] -20 10 -2 1 10 2 10 4 10 6 Ant ibiot ic Concent r at ion [ nM] Figure S2. […] tested as control in competition with Api137 or erythromycin. Experiments were done twice in triplicates. Error bars show the standard deviation of all six replicates. The horizontal dotted line separates positive and negative ranges on the Y-axis. - S9 - (also on this page, place not known: […]

Assay [3] deals with 70S ribosome extract of E. coli BW25113 (E. coli BW25113 (endogenous)). The experiment in a line: fluorescence polarisation; 2-fold dilution series of the ribosome extract (23 steps) mixed with cf-labeled peptide (20 µL, 40 nmol/L) in ribosome preparation buffer (20 mmol/L Hepes-KOH, 6 mmol/L MgCl2, 30 mmol/L NH4Cl, pH 7.6); 28 ± 1 °C, 90 min; Kd = x0 of a dose-response fit.
Assay [4] deals with 70S ribosome extract of E. coli Rosetta DE3 pLysS (E. coli Rosetta DE3 pLysS (endogenous)). The assay is described as above.
For assay [5], the system named is 70S ribosome extract of E. coli BW25113. Description: Fluorescence polarization, Kd of cf-labeled peptides. In kind it is binding, Escherichia coli. The note with it: 70S ribosome, refers to Table 2. The protocol:
E. coli BW25113 and E. coli Rosetta pLysS were cultivated in LB medium and harvested at an OD600 of ~4 by centrifugation (5000× g, 30 min, 4 °C). The cell pellets were washed by resuspension in ribosome preparation buffer (20 mmol/L Hepes-KOH, 6 mmol/L MgCl2, 30 mmol/L NH4Cl, pH 7.6, 4°C) and subsequent centrifugation (5000× g, 30 min, 4 °C). Cell pellets were suspended in ribosome preparation buffer ([…]) containing freshly added 2-mercapotethanol (4 mmol/L). Lysozyme was added to the resuspended cells and incubated on ice for 30 min. The cell suspension was disrupted six times using a FastPrep-24^TM 5G instrument (MP Biomedicals, Solon, OH, USA) with BigPrep 50 mL setting (40 s, 4.0 m/s), incubated with DNase I (5 mL/L) on ice for one hour and centrifuged (16,000× g, 30 min, 4 °C). The cell debris was removed from the supernatant by centrifugation (32,000× g, 60 min, 4 °C), and the supernatant was centrifuged again (165,000× g, 17 h, 4 °C). The pellet was resuspended in ribosome preparation buffer (0.1 mL per g cell pellet) to obtain the 70S ribosome extract and stored at −80 °C. The ribosome concentration was estimated by recording the absorbance at 260 nm (1 AU for a ribosome concentration of 28 nmol/L). The molecular weight of the 70S E. coli ribosome was assumed to be 2.3 MDa.
Kd was determined using a ribosome extract and cf-labeled peptides in ribosome preparation buffer. Briefly, black 384-well plates (flat bottom, Greiner Bio-One GmbH) were blocked with casein (0.5%, w/v) in phosphate buffer containing 0.05% (v/v) Tween 20 at 4 °C overnight and washed three times with phosphate buffer. A 2-fold dilution series of the ribosome extract (20 μL per well) in ribosome preparation buffer was prepared in a black 384-well plate (23 dilution steps). The cf-labeled peptide was dissolved in ribosome preparation buffer (20 μL, 40 nmol/L), added to each well, and incubated at 28 ± 1 °C. After 90 min, the fluorescence polarization was measured on a PARADIGMTM microplate reader (Beckman Coulter, Salzburg, Austria) in the top read position (λexc = 485 nm, λem = 535 nm) in triplicate on at least two different days. Data were fitted to a nonlinear, dose–response logistical transition equation [y= y0 + a/(1 + (x/x0)b)] using the Levenberg–Marquardt algorithm, with dissociation constants (Kd) represented by the x0 coefficients (GraphPad Prism for Windows v. 5.02, San Diego, CA, USA).

The target in assay [6] is 70S ribosome extract of E. coli BW25113 (E. coli BW25113 (endogenous)). Description: fluorescence polarisation; competition: unlabeled peptide (2-fold series from 656 µmol/L) pre-incubated with BW25113 ribosome extract (28 °C, 90 min), then cf-Onc112 (10 µL, 80 nmol/L) added (28 °C, 90 min); ribosome preparation buffer; Ki calculated from IC50.
For assay [7] the target is unchanged. Description: fluorescence polarisation; competition: unlabeled peptide (2-fold series from 656 µmol/L) pre-incubated with BW25113 ribosome extract (28 °C, 90 min), then cf-Api137 (10 µL, 80 nmol/L) added (28 °C, 90 min); ribosome preparation buffer; Ki calculated from IC50.

Regarding `CC[C@H](C)[C@H](NC(=O)[C@@H]1CCCN1C(=O)[C@H](CCCNC(=N)N)NC(=O)[C@H](CC(N)=O)NC(=O)[C@H](CC(N)=O)NC(=O)CN)C(=O)N[C@@H](Cc1ccc(O)cc1)C(=O)N[C@H](C(=O)N1CCC[C@H]1C(=O)N[C@@H](CCCNC(=N)N)C(=O)N1CCC[C@H]1C(=O)N[C@@H](CCCNC(=N)N)C(=O)N1CCC[C@H]1C(=O)N1CCC[C@H]1C(=O)N[C@@H](Cc1c[nH]cn1)C(=O)N1CCC[C@H]1C(=O)N[C@@H](CCCNC(=N)N)C(=O)N[C@@H](CC(C)C)C(=O)O)[C@@H](C)CC` [Api801] (H-GNNRPIYIPRPRPPHPRL-OH), the “MIC, Ros” value in assay [1] was 4 µg/mL (≈ 1.86 µM). Also, in the assay with E. coli BW25113, the “MIC, BW” value is 16 µg/mL (≈ 7.44 µM).
As for `O=C(N[C@H](CO)[C@H](O)c1ccc([N+](=O)[O-])cc1)C(Cl)Cl` [chloramphenicol], in assay [2], the “inhibition of the binding of cf-labeled Api805” value (“inhibition” for short) was “none inhibited”.
For the molecule `CC[C@H]1OC(=O)[C@H](C)[C@@H](O[C@H]2C[C@@](C)(OC)[C@@H](O)[C@H](C)O2)[C@H](C)[C@@H](O[C@@H]2O[C@H](C)C[C@H](N(C)C)[C@H]2O)[C@](C)(O)C[C@@H](C)C(=O)[C@H](C)[C@@H](O)[C@]1(C)O` [erythromycin], the “inhibition” value in assay [2] is “none inhibited”.
Consider `NC[C@H]1O[C@H](O[C@H]2[C@H](O)[C@@H](O[C@H]3O[C@H](CO)[C@@H](O)[C@H](N)[C@H]3O)[C@H](N)C[C@@H]2N)[C@H](O)[C@@H](O)[C@@H]1O` [kanamycin], for which the “inhibition” value in assay [2] is listed as “none inhibited”.
In assay [3], cf-Api88 (peptide) gave a Kd of 906 nM.
As for cf-Api137 (peptide), the Kd came out at 382 nM in assay [3] and 198 nM in assay [4].
For “cf-Api805: Api805 labeled with 5(6)-carboxyfluorescein at the N-terminus ({5(6)‑carboxyfluorescein}-GNNRPIYIPRPRPPHPRPIRV-OH)”, the “Kd values of cf-labeled peptides, in words” value in assay [5] was “nanomolar range”.
Consider {5(6)‑carboxyfluorescein}-VDKPPYLPRPRPPR[dR]IYN[dR]-NH2 [cf-Onc112], for which the Kd in assay [3] was found to be 27 nM; in assay [4], 51 nM.
In the case of GNNRPIYIPRPRPPHPRL-OH [Api801], the results for the inhibition constant Ki in assay [6] and in assay [7] were 247 nM and 2 nM, respectively.
Regarding VDKPPYLPRPRPPR[dR]IYN[dR]-NH2 [Onc112], the Ki in assay [6] is 8 nM; in assay [7], 606 nM.
Regarding {5(6)‑carboxyfluorescein}-GNNRPIYIPRPRPPHPRPIRV-OH [cf-Api805], the Kd in assay [3] was 557 nM; in assay [4], 515 nM.

(Values after PMC9025336 (Antibiotics, 2022).)
